T1: human CD94 expressed on cells (human primary NK cells in PBMCs; HEK cells expressing human CD94) (human, UniProt Q13241 1-179)
T1 sequence (looked up): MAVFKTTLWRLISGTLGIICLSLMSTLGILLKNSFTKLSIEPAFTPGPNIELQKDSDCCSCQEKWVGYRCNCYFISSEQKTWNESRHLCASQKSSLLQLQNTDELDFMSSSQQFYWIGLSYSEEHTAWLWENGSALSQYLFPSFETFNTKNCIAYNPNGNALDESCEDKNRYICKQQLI

T2: cynomolgus CD94 expressed on HEK293 cells (cynomolgus monkey, UniProt Q68VD4 1-179)
T2 construct: also called cyno-CD94; cynomolgus monkey CD94
T2 sequence: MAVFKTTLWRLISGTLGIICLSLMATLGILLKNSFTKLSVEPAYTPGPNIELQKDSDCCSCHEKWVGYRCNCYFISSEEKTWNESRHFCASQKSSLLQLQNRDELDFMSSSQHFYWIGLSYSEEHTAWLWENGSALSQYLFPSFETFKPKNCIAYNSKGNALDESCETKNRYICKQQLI

B1: anti-CD94 antibody clone 1E4 (antibody, V domains shown)
VH: QVTLRESGPALVKPTQTLTLTCTFSGFSLSTSDLCVSWIRQPPGKALEWLALIDWNDDKYYSTSLQTRLTISKDTSKNQVVLTMTNMDPVDTATYYCARTIAAAGPYDAFDIWGQGTMVTVSS
VL: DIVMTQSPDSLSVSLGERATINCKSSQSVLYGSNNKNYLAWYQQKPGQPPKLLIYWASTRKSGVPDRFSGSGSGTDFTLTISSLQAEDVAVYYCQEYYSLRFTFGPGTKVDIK
notes: also called fucosylated 1E4
B2: anti-CD94 antibody clone 1M4 (antibody, V domains shown)
VH: QLVESGGGLVQPGGSLRLACAASGFTFSNYAMNWVRQAPGKGLEWVSVISGSGDTTYCADSVKGRFTISRDNSKNTLHLQLNSLRAEDTAVYYCAKNCYGSGSYYNHFDYWGQGTLVTVSS
VL: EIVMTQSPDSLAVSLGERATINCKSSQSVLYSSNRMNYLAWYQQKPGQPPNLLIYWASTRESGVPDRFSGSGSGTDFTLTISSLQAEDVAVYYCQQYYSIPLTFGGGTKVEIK

How the values were obtained:
[1] = target: T1, human CD94 expressed on cells (human …); assay: cell-based or functional assay
[2] = target: T2, cynomolgus CD94 expressed on HEK293 …; assay: flow cytometry, hybridoma supernatant on cynomolgus CD94-expressing HEK293 cells
Excerpt: (§1) Anti-CD94 hybridoma supernatants were screened on cynomolgus CD94-expressing HEK293 cells by flow cytometry for cross-reactivity to cynomolgus CD94. HP-3D9 is a commercial anti-CD94 antibody that was used as a negative control. Mouse IgG1, IgG2a, IgG2b and IgG3 were used as negative controls. […] Commercially available anti-CD94 antibodies were used to test cynomolgus cross-reactivity. 18H3 was used as a positive control. The MFI of each antibody was normalized to the MFI of its respective isotype.
(§2) Cynomolgus CD94-expressing HEK293 cells were seeded in 96-well plates at a density of 100,000 cells per well, incubated with cell viability dye (Thermo Fisher) for 30 minutes on ice and protected from light. The cells were washed once with FACS buffer (PBS with 2% IgG low FBS). Hybridoma supernatants, anti-CD94 antibodies and isotype controls were incubated with cells for 30 minutes on ice and protected from light. […] After incubation, the cells received a final wash in FACS buffer before quantification on the Cytoflex (Beckman Coulter). All data acquisition and fluorescence compensation were performed using CytoFlex (Beckman Coulter, Atlanta, GA). […] CD94 expression was then quantified on this population. […]

[3] = target: T1, human CD94 expressed on cells (human …); assay: flow cytometry titration on CD3-CD56+ NK cells in healthy donor PBMCs; 'Affinity on Human NK Cells'; the filing derives these affinities as EC50 of titration curves (the 2.6nM of 18H3 is labelled EC50 in FIG. 1)
Method: Healthy donor PBMCs were seeded in 96 well plates at a density of 100,000 cells per well, incubated with human Fc block (Biolegend) and cell viability dye (Thermo Fisher) for 30 minutes on ice and protected from light. The cells were washed once with FACS buffer (PBS with 2% IgG low FBS). anti-CD94 antibodies at concentrations of 100 nM to 0.046 nM, 1:3-fold dilutions, were incubated with cells for 30 minutes on ice and protected from light. The cells were then washed and incubated with goat IgG anti-mouse Fey specific AF647 secondary antibody or goat (Fab)2 fragment anti-human Fey specific AF647 secondary antibody (Jackson immuno research), anti-CD3 pacific blue-labelled and anti-CD56 FITC-labelled antibodies (Biolegend) for 30 minutes on ice and protected from light. After incubation, the cells received a final wash in FACS buffer before quantification on the Cytoflex (Beckman Coulter). All data acquisition and fluorescence compensation were performed using CytoFlex (Beckman Coulter, Atlanta, GA). Data analysis was performed using FlowJo software. NK cells were identified through gating on lymphocytes on the forward and side scatter, followed by doublet and dead cell exclusion, and gated on the CD3−CD56+ population. CD94 expression was then quantified on the CD3−CD56+NK cell population. […]
The affinity of the antibody clones was also assessed by flow cytometry analysis.

[4] = target: T1, human CD94 expressed on cells (human …); assay: HLA-E tetramer blocking assay, flow cytometry on CD3-CD56+ NK cells in healthy donor PBMCs; antibody at one saturating concentration, blocked ligand PE-labelled HLA-E tetramer; percent blocking = 100-((percent HLA-E positive with antibody)/(percent HLA-E positive with isotype)*100)
Method: Healthy donor PBMCs were incubated with anti-CD94 antibodies. PE labeled HLA-E tetramer was then incubated with the cell and antibody mixture, and detected using flow cytometry. For HP-3B1, 131412, 12K45, DX22, 1M4 and 1E4, 2.5 μl of HLA-E tetramer reagent was used, while 5 μl was used for 18H3 and HP-3D9. Saturating concentrations of each antibody was used in this assay. The percent blocking was calculated as 100−((percent HLA-E positive for anti-CD94 antibody)/(percent HLA-E positive for isotype)*100).
Healthy donor PBMCs were seeded in 96-well plates at a density of 100,000 cells per well, incubated with human Fc block (Biolegend) and cell viability dye (Thermo Fisher) for 30 minutes on ice and protected from light. The cells were washed once with FACS buffer (PBS with 2% IgG low FBS). anti-CD94 antibodies at EC80 concentrations were incubated with cells for 30 minutes on ice and protected from light. After incubation with the anti-CD94 antibodies, the cells were washed and incubated with HLA-E tetramer PE (Creative Biolabs), anti-CD3 pacific blue-labelled, and anti-CD56 FITC-labelled antibodies (Biolegend) for 30 minutes on ice and protected from light. The cells then received a final wash in FACS buffer before quantification on the Cytoflex (Beckman Coulter). All data acquisition and fluorescence compensation were performed using CytoFlex (Beckman Coulter, Atlanta, GA). Data analysis was performed using FlowJo software. NK cells were identified through gating on lymphocytes on the forward and side scatter, followed by doublet and dead cell exclusion, and gated on the CD3−CD56+ population. HLA-E expression was then quantified on the CD3−CD56+NK cell population. Percent blocking was calculated as 100−((percent HLA-E positive for anti-CD94 antibody)/(percent HLA-E positive for isotype)*100).

[5] = target: T2, cynomolgus CD94 expressed on HEK293 …; assay: flow cytometry, cynomolgus CD94-expressing HEK293 cells
Excerpt: as §1, §2

Binder | percent decrease in MFI (antibody internalization assay), comparing 0.5 hours to 24 hours at 37° C. [1] [%] | binding result [2] | EC50 [3] [nM] | HLA-E Blocking [4] [%] | binding result [5]
B1 | 18 | binds | 75 | 0 | 
B2 | 32 |  | 7 | 0 | binds
